Data: patent US11278600B2, “Human alpha-galactosidase variants” (Codexis, Inc., priority 2014, dated 2022)

Tests used:
Assay type in all cases: biochemical
[1] = HTP-analysis of supernatants pretreated with acid (MUGal hydrolysis); details: challenge at pH 4.0; activity of the variant/activity of Rd3BB (SEQ ID NO: 13); yeast culture supernatant
Outline: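 Fluorescence of MUGal hydrolysis (Ex. 355 nm, Em. 448 nm) is read after sodium carbonate quench. The enzyme source is INVSc1 yeast culture supernatant, first exposed to pH 3.3-4.3 McIlvaine buffer at 37° C. for 1-3 h, then reacted at pH 4.8 for 30-180 minutes.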

[2] = HTP-analysis of supernatants pretreated with bovine serum (MUGal hydrolysis); details: activity of the variant/activity of Rd3BB (SEQ ID NO: 13), yeast culture supernatant
Outline: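 Yeast INVSc1 culture supernatants containing secreted GLA variants were mixed with bovine serum (20:80) and held 1 h at 37° C. Serum-treated samples then reacted with MUGal (4 mM stock) in citrate/McIlvaine buffer (pH 4.3/4.8) for 180 min at 37° C., were quenched with sodium carbonate, and read by fluorescence (Ex 355, Em 448 nm).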

[3] = HTP-analysis of yeast culture supernatants, no challenge (MUGal hydrolysis); details: activity of the variant/activity of Rd3BB (SEQ ID NO: 13), yeast culture supernatant
Outline: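 GLA variants expressed in yeast INVSc1, secreted into SD-Ura broth over 66-84 h at 30° C; clarified supernatants tested without challenge. Supernatant mixed with McIlvaine buffer pH 4.8 and 2 mM MUGal (citrate/KCl, pH 4.6), 37° C for 30-180 min, carbonate-quenched, fluorescence Ex 355/Em 448 nm.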

[4] = HTP-analysis of supernatants pretreated with base (MUGal hydrolysis); details: challenge at pH 8.2; activity of the variant/activity of Rd3BB (SEQ ID NO: 13); yeast culture supernatant
Outline: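 Supernatants from INVSc1 yeast expressing GLA variants (SD-Ura, 66-84 h, 30° C) were mixed with McIlvaine buffer pH 7.0-8.2 or 200 mM sodium bicarbonate pH 9.1-9.7 and held 1-18 h at 37° C. Residual activity was then measured on MUGal at pH 4.8/4.3, 37° C, 30-180 min, by fluorescence (Ex 355/Em 448 nm).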

Row | Molecule | Relative Activity of GLA Variants After Challenge at pH 4.0 [1] | Relative Activity of GLA Variants After Challenge with Serum [2] | Relative Activity of GLA Variants After No Challenge (NC) [3] | Relative Activity of GLA Variants After Challenge at pH 8.2 [4]
1 | 302 (protein, Synthetic Polypeptide sequence of Variant No. 302 of mature Human GLA) LDNGLARTPTMGWLHWERFMCNLDCQEEPDSCISEKLFMEMAELMVSEGWKDAGYEYLCIDDCWMAPQRDSEGRLQADPQRFPHGIRQLANYVHSKGLKLGIYADVGNKTCAGFPGSFGYYDIDAQTFADWGVDLLKFDGCYCDSLENLADGYKHMSLALNRTGRSIVYSCEWPLYMWPFQKPNYTEIRQYCNHWRNFADIDDSWASIKSILDWTSFNQERIVDVAGPGGWNDPDMLVIGNFGLSWNQQVTQMALWAIMAAPLFMSNDLRHISPQAKALLQDKDVIAINQDPLGKQGYQLRQGDNFEVWERPLSGLAWAVAVINRQEIGGPRSYTIAVASLGGGVACNPACFITQLLPVKRKLGFYNWTSRLKSHINPTGTVLLQLENTMQMSLKDLL | + (+ = 0.5 to 1.5 relative activity over Rd3BB (SEQ ID NO: 13)) | + (+ = 0.5 to 1.5 relative activity over Rd3BB (SEQ ID NO: 13)) | + (+ = 0.5 to 1.5 relative activity over Rd3BB (SEQ ID NO: 13)) | + (+ = 0.5 to 1.5 relative activity over Rd3BB (SEQ ID NO: 13))
2 | 303 (protein, Synthetic Polypeptide sequence of Variant No. 303 of mature Human GLA) LDNGLARTPTMGWLHWERFMCNLDCQEEPDSCISEKLFMEMAELMVSEGWKDAGYEYLCIDDCWMAPQRDSEGRLQADPQRFPHGIRQLANYVHSKGLKLGIYADVGNKTCAGFPGSFGYYDIDAQTFADWGVDLLKFDGCYCDSLENLADGYKHMSLALNRTGRSIVYSCEWPLYMWPFQKPNYTEIRQYCNHWRNFADIDDSWASIKSILDWTSFNQERIVDVAGPGGWNDPDMLVIGNFGLSWDQQVTQMALWAIMAAPLFMSNDLRHISPQAKALLQDKDVIAINQDPLGKQGYQLRQGDNFEVWERPLSGLAWAVAIINRQEIGGPRSYTIEVASLGDGVACNPACFITQLLPVKRKLGLYNWTSRLKSHVNPTGTVLLQLENTMQMSLKDLL | ++ (++ = >1.5 to 2.5 relative activity over Rd3BB (SEQ ID NO: 13)) | + (+ = 0.5 to 1.5 relative activity over Rd3BB (SEQ ID NO: 13)) | ++ (++ = >1.5 to 2.5 relative activity over Rd3BB (SEQ ID NO: 13)) | ++ (++ = >1.5 to 2.5 relative activity over Rd3BB (SEQ ID NO: 13))
3 | 304 (protein, Synthetic Polypeptide sequence of Variant No. 304 of mature Human GLA) LDNGLARTPTMGWLHWERFMCNLDCQEEPDSCISEKLFMEMAELMVSEGWKDAGYEYLCIDDCWMAPQRDSEGRLQADPQRFPHGIRQLANYVHSKGLKLGIYADVGNKTCAGFPGSFGYYDIDAQTFADWGVDLLKFDGCYCDSLENLADGYKHMSLALNRTGRSIVYSCEWPLYMWPFQKPNYTEIRQYCNHWRNFADIDDSWASIKSILDWTSFNQERIVDVAGPGGWNDPDMLVIGNFGLSWNQQVTQMALWAIMAAPLFMSNDLRHISPQAKALLQDKDVIAINQDPLGKQGYQLRKGDNFEVWERPLSGDAWAVAIINRQEIGGPRSYTIPVASLGKGVACNPGCFITQLLPVKRQLGFYNWTSRLKSHINPTGTVLLQLENTMQMSLKDLL | ++ (++ = >1.5 to 2.5 relative activity over Rd3BB (SEQ ID NO: 13)) | ++ (++ = >1.5 to 2.5 relative activity over Rd3BB (SEQ ID NO: 13)) | ++ (++ = >1.5 to 2.5 relative activity over Rd3BB (SEQ ID NO: 13)) | ++ (++ = >1.5 to 2.5 relative activity over Rd3BB (SEQ ID NO: 13))
